The record followed here is paper PMC4472530 (2016).

Residue numbers refer to the chain shown, from its start.

As usually defined, the Kd is the equilibrium constant for the complex coming apart. Higher therefore signals lower affinity.

The target of this experiment is T1, RLC-depleted cardiac beta-myosin (myosin heavy chain) (Sus scrofa, UniProt P79293).
T1 chain: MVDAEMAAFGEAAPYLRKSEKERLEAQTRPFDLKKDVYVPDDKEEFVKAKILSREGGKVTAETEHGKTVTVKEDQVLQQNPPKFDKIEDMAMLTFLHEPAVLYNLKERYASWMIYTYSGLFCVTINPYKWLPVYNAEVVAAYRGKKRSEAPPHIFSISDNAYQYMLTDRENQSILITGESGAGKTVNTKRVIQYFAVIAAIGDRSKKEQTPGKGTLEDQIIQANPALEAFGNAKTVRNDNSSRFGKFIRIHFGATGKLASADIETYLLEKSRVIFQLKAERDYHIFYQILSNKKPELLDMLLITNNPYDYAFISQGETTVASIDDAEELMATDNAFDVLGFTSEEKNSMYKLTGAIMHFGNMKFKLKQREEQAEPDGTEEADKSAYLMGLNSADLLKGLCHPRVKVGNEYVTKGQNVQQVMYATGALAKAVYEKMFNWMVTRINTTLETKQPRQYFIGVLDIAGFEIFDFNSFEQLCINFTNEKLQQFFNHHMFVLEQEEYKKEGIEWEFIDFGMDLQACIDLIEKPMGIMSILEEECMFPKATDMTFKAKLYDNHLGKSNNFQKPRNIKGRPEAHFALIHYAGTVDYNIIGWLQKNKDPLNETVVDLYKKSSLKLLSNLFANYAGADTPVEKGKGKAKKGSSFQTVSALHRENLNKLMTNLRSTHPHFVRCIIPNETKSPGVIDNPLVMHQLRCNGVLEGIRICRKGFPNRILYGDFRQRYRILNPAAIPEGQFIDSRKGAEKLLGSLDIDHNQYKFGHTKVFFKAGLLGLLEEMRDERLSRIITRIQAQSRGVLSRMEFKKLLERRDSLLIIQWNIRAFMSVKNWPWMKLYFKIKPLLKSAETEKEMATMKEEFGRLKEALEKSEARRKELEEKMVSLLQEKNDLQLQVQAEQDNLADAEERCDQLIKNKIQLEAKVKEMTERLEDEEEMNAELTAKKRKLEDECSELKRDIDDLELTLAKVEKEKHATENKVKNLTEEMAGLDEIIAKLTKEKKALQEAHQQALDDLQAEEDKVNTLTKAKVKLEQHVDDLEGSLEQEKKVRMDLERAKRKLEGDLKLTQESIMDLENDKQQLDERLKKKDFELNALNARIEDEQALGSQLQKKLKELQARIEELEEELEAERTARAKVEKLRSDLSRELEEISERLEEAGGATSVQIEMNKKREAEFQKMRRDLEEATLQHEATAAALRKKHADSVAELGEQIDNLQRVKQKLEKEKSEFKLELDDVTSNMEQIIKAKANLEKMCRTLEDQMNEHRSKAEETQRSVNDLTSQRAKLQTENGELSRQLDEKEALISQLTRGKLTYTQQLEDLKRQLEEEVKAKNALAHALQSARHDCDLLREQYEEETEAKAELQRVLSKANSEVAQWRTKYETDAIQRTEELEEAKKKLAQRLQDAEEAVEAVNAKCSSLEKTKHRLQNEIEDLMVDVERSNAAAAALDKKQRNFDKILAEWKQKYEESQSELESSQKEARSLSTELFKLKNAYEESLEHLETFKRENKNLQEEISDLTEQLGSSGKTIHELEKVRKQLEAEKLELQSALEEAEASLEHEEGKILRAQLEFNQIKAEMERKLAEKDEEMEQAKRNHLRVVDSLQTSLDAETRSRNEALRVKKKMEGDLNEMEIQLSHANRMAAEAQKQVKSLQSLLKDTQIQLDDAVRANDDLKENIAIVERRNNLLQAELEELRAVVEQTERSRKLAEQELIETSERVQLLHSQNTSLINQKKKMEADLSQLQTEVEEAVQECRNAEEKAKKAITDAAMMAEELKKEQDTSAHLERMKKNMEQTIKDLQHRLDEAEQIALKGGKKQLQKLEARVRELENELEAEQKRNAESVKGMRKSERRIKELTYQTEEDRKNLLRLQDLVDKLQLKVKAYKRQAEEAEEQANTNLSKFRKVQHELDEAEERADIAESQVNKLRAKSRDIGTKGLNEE
Kind of experiment: SDS-PAGE titration/co-precipitation binding isotherm.

B1: Myosin regulatory light chain 2, ventricular (protein)
chain: APKKAKKRAGGANSNVFSMFEQTQIQEFKEAFTIMDQNRDGFIDKNDLRDTFAALGRVNVKNEEIDEMIKEAPGPINFTVFLTMFGEKLKGADPEETILNAFKVFDPEGKGVLKADYVREMLTTQAERFSKEEVDQMFAAFPPDVTGNLDYKNLVHIITHGEEKD
In the case of B1, binding was put at a Kd of 3.2 µM.

B2: Myosin regulatory light chain 2, ventricular (protein)
chain: B1 chain with D93A
Molecule B2 showed a Kd of 4.9 µM.
